Experimental data: article PMC11915502

Biological target: His6-HppX3 (Escherichia coli 3R (chicken), …, UniProt A0A0F7IE22 1-151)
Assay: EMSA

B1: Bio-PactX (actX promoter probe) (dsDNA)
DNA 1: AAGTAACTAGCGGTACTAGAGTCGACCTGCAGGCATATAAAATAAGCGCA
DNA 2: TGCGCTTATTTTATATGCCTGCAGGTCGACTCTAGTACCGCTAGTTACTT
B1: binds.
